The values that follow come from publication PMC7083938 (2020).

In the assay the target is T1, biotinylated mouse Robo3 FN1–3 (Avi-tagged) (mouse, UniProt Q9Z2I4 558-869, biotin on the Avi-tag (BirA)).
T1 chain: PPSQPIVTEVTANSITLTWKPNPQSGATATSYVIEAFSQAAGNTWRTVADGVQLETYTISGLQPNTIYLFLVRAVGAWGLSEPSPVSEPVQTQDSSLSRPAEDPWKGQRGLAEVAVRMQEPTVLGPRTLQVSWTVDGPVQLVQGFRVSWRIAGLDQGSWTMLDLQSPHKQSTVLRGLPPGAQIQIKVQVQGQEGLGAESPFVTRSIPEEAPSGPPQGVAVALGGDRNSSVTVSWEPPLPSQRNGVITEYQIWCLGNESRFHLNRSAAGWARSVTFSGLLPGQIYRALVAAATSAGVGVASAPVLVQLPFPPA
As to the kind of experiment: SPR.

B1: mouse NELL2 EGF1–6, wild type (domain or fragment)
chain: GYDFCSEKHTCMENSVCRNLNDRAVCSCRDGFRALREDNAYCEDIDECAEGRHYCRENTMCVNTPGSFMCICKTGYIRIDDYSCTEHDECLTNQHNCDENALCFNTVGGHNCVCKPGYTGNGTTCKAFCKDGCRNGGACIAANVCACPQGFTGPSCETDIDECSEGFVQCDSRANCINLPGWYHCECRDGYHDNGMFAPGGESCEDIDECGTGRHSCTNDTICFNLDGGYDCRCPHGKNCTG
On to B1, for which binding was put at a Kd of 0.71 µM.

B2: mouse NELL2 EGF1–6 L498A/F500A (domain or fragment)
chain: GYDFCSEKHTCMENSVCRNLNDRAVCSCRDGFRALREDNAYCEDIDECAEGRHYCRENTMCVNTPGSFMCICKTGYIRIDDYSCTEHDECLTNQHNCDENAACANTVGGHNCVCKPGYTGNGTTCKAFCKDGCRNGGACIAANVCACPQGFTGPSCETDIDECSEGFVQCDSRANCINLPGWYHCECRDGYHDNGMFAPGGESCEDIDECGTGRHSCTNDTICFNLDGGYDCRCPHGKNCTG
Turning to B2, the Kd was ~400 µM.

B3: mouse NELL2 EGF1–6 R448A/Y450A (domain or fragment)
chain: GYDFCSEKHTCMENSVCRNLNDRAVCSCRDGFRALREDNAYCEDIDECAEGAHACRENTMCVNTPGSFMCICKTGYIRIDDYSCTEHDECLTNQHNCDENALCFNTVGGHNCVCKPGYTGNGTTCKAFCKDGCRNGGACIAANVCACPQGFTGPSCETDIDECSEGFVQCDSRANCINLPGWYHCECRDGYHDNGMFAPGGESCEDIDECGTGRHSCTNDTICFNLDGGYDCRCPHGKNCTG
B3 gave a Kd of 87 µM.
